Values joined by “and” are separate entries in the source; they are usually repeats but may differ in a detail not shown here. Equal values may be shown once.
Experiments:
[1] = tested on: Caco-2 intestinal epithelial cells; assay: IL-8 secretion by Caco-2 cells (Luminex-100); type: cell-based, human; conditions: 18 hours
Method: TNFα (100 ng/ml; dark grey bar) served as a positive control. Following incubation for 18 hours, culture supernatants were analyzed for IL-8 using the Luminex-100 system in duplicate. Data represent mean and standard deviation of three individual experiments.
No peptides (c) and TNFα alone (dark grey bar) served as controls. Following incubation for 18 hours, culture supernatants were analyzed for IL-8 using the Luminex-100 system in duplicate. Data represent mean and standard deviation of three individual experiments.
Subconfluent monolayers of Caco-2 cells were maintained in RPMI 1640 medium (Gibco), supplemented with 10% FBS (Valley Biomedical, Winchester, Va.), 2 mM L-glutamine (Quality Biological, Gaithersburg, Md.), 20 mM HEPES, 1× nonessential amino acids, 1 mM sodium pyruvate and 5% Penicillin/Streptomycin (Sigma) in a humidified incubator at 37° C. with 5% CO2. Caco-2 cells were used between passages 35-42. Caco-2 cells were plated at a density of 4×10^4 cells/cm^2 in a 96-well plate 48 hours before use. The cells were gently washed twice with serum-free medium and incubated for a further 18 hours in serum-free medium containing the peptides at a final concentration of 50 or 100 ug/ml. Human recombinant tumor necrosis factor alpha (Sigma; 100 ng/ml) was included during incubation with the peptides (100 ug/ml) as indicated. The culture supernatant was collected for measurement of IL-8 using the Luminex-100 system (Bio-rad Laboratories).

[2] = target: Fibronectin (human plasma); assay: Surface plasmon resonance (BIAcore 3000), immobilized SlpA binding to fibronectin
Method: (§1) The interaction between SlpA and extracellular matrix components was evaluated by surface plasmon resonance on a BIAcore 3000 instrument. Purified SlpA protein in 5M LiCl was dialyzed against double-distilled water overnight. Monomeric and/or oligomeric protein was separated from self-assembled material by centrifugation at 20,000×g for 20 min. SlpA protein (50 ug/ml in 10 mM Sodium Phosphate pH 7.4) was covalently coupled to CM5 carboxylated dextran chips using N-hydroxysuccinimide (NHS) chemistry. Uncoupled NHS-ester groups were blocked with 1M Ethanolamine, resulting in the coupling of about 1700 resonance units (RU's) to the chip. Kinetic analysis was carried out at 25° C. in 10 mM HEPES, 150 mM NaCl, 3 mM EDTA, 0.005% surfactant P20, pH 7.4. Fibronectin, laminin, fibrinogen and collagen were treated according to manufacturer's instructions and injected at indicated concentrations at a flow rate of 20 ul/min over each flow cell. Binding was determined experimentally by comparing the number of RU's observed as a function of time to an activated and blocked flow cell containing no linked protein. Non-specific binding to the control flow cell appeared insignificant. Data were evaluated using the BIAevaluation 4.1 software. The association and dissociation data were modeled with the BIAevaluation 4.1 software (Pharmacia Biosensor AB). Following subtraction of data from the control flow cell, the binding data produced for the various protein concentrations were fitted simultaneously, assuming the 1:1 Langmuir model. The equilibrium constant for the fibronectin+benzamidine experiment was calculated using steady-state kinetics.
(§2) To examine the binding properties of SlpA to the extracellular matrix proteins fibronectin, laminin, fibrinogen and collagen in detail, surface plasmon resonance was used. […] The association and dissociation rate constants were estimated from the binding data at different concentrations using the BIAevaluation software and from these values the binding constant was calculated (Table 2). […] In addition, the interaction between SlpA and the ECN components fibrinogen and collagen was studied.

[3] = target: T1, Fibrinogen (human plasma) (Homo sapiens, UniProt P02671+P02675+P02679); assay: Surface plasmon resonance (BIAcore 3000), immobilized SlpA binding to fibrinogen; conditions: from binding constants
T1 construct: Fibrinogen (human plasma) was obtained from Calbiochem; purchased Calbiochem; host or cells: human plasma
T1 sequence (P02671 20-644 isoform P02671-2 limits assumed): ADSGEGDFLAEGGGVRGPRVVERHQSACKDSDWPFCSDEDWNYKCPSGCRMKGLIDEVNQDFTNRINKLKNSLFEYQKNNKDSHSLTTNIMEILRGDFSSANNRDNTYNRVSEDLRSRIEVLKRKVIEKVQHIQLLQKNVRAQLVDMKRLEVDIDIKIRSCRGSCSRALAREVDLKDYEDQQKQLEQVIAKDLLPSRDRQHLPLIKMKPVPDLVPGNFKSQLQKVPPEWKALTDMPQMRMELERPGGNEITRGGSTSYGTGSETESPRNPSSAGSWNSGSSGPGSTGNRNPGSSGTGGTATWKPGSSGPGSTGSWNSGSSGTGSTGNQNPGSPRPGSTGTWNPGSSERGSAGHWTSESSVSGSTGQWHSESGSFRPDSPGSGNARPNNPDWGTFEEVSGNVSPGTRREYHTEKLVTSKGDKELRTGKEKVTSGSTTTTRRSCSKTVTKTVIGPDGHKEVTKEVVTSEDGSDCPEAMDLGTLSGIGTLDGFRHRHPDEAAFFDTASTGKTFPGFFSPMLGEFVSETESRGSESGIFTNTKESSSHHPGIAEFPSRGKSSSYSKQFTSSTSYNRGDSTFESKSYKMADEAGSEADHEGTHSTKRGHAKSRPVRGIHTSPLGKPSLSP
T1 sequence (P02675 31-491): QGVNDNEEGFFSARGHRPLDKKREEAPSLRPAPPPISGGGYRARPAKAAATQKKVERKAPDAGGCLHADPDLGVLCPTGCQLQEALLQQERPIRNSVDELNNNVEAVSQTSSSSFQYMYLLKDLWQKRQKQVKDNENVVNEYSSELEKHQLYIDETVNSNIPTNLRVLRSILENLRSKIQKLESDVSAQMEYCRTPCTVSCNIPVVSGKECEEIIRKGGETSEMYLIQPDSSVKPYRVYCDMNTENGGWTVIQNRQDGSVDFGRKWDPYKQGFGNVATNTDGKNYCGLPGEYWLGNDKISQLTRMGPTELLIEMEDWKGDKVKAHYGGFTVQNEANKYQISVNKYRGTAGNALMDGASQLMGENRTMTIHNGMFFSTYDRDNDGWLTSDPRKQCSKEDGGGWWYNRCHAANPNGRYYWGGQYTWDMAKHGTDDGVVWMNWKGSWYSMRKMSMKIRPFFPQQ
T1 sequence (P02679 27-437 isoform P02679-2 limits assumed): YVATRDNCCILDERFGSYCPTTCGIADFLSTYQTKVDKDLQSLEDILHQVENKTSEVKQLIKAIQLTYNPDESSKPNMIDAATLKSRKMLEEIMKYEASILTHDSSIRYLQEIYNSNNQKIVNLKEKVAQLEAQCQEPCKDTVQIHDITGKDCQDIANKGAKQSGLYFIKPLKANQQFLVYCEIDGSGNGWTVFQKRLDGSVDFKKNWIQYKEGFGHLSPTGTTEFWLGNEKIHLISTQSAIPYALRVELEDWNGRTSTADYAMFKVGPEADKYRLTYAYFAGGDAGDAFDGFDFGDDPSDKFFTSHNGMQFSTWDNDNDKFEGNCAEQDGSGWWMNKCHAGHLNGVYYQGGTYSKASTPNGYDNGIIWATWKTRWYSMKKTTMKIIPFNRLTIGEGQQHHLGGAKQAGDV
Method: The interaction between SlpA and extracellular matrix components was evaluated by surface plasmon resonance on a BIAcore 3000 instrument. Purified SlpA protein in 5M LiCl was dialyzed against double-distilled water overnight. Monomeric and/or oligomeric protein was separated from self-assembled material by centrifugation at 20,000×g for 20 min. SlpA protein (50 ug/ml in 10 mM Sodium Phosphate pH 7.4) was covalently coupled to CM5 carboxylated dextran chips using N-hydroxysuccinimide (NHS) chemistry. Uncoupled NHS-ester groups were blocked with 1M Ethanolamine, resulting in the coupling of about 1700 resonance units (RU's) to the chip. […] Binding was determined experimentally by comparing the number of RU's observed as a function of time to an activated and blocked flow cell containing no linked protein. […] Data were evaluated using the BIAevaluation 4.1 software. […] The equilibrium constant for the fibronectin+benzamidine experiment was calculated using steady-state kinetics.
To examine the binding properties of SlpA to the extracellular matrix proteins fibronectin, laminin, fibrinogen and collagen in detail, surface plasmon resonance was used. […] The association and dissociation rate constants were estimated from the binding data at different concentrations using the BIAevaluation software and from these values the binding constant was calculated (Table 2). […]

[4] = target: T2, Laminin (basement membrane of Engelbreth-Holm-Swarm mouse sarcoma) (Mus musculus, UniProt P02468+P02469+P19137); assay: Surface plasmon resonance (BIAcore 3000), immobilized SlpA binding to laminin
T2 construct: Laminin (basement membrane of Engelbreth-Holm-Swarm mouse sarcoma); purchased Sigma; host or cells: Engelbreth-Holm-Swarm mouse sarcoma basement membrane
Method: as §1, §2

[5] = target: T3, Collagen (human placenta Type IV) (Homo sapiens, UniProt P02462+P08572); assay: Surface plasmon resonance (BIAcore 3000), immobilized SlpA binding to collagen
T3 construct: purchased Sigma; host or cells: human placenta
T3 sequence (P02462 173-1669): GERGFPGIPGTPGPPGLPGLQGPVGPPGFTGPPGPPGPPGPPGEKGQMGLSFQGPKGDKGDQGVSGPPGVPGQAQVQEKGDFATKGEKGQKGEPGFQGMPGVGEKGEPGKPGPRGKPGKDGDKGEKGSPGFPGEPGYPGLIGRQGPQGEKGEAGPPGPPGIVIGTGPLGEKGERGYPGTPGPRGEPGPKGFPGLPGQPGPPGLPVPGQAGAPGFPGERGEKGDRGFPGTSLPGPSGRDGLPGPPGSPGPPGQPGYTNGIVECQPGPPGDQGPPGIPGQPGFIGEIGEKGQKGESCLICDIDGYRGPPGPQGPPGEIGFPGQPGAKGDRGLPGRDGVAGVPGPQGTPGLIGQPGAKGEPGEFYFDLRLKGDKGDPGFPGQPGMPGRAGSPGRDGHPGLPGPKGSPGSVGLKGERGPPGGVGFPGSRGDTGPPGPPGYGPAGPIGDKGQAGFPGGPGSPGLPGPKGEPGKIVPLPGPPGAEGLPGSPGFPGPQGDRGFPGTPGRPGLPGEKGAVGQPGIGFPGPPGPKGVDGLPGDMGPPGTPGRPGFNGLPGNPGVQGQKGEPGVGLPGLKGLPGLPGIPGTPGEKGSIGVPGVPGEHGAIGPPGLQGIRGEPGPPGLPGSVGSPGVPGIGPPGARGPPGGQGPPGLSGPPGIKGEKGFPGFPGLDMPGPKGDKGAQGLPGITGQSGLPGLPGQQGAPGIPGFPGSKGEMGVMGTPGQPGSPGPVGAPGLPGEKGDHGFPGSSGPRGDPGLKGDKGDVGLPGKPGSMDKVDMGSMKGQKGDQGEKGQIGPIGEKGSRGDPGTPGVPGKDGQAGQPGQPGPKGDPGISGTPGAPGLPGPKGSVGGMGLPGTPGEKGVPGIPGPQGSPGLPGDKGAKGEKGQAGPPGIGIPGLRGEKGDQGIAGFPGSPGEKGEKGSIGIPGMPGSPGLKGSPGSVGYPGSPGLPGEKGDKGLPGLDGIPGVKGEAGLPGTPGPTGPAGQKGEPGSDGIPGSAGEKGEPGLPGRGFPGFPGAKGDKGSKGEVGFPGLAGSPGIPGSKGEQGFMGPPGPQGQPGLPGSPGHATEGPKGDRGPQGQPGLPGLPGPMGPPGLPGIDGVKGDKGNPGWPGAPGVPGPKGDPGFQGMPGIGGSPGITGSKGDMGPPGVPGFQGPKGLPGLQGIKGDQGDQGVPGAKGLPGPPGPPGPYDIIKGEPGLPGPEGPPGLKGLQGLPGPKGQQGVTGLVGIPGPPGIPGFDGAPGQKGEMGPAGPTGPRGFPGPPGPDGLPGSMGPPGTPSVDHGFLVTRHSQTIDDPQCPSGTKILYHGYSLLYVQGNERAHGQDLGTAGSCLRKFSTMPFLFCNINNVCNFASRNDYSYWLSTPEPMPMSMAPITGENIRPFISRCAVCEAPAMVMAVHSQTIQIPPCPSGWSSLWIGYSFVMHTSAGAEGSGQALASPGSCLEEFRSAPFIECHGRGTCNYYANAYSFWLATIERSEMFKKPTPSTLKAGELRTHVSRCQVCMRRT
T3 sequence (P08572 184-1712): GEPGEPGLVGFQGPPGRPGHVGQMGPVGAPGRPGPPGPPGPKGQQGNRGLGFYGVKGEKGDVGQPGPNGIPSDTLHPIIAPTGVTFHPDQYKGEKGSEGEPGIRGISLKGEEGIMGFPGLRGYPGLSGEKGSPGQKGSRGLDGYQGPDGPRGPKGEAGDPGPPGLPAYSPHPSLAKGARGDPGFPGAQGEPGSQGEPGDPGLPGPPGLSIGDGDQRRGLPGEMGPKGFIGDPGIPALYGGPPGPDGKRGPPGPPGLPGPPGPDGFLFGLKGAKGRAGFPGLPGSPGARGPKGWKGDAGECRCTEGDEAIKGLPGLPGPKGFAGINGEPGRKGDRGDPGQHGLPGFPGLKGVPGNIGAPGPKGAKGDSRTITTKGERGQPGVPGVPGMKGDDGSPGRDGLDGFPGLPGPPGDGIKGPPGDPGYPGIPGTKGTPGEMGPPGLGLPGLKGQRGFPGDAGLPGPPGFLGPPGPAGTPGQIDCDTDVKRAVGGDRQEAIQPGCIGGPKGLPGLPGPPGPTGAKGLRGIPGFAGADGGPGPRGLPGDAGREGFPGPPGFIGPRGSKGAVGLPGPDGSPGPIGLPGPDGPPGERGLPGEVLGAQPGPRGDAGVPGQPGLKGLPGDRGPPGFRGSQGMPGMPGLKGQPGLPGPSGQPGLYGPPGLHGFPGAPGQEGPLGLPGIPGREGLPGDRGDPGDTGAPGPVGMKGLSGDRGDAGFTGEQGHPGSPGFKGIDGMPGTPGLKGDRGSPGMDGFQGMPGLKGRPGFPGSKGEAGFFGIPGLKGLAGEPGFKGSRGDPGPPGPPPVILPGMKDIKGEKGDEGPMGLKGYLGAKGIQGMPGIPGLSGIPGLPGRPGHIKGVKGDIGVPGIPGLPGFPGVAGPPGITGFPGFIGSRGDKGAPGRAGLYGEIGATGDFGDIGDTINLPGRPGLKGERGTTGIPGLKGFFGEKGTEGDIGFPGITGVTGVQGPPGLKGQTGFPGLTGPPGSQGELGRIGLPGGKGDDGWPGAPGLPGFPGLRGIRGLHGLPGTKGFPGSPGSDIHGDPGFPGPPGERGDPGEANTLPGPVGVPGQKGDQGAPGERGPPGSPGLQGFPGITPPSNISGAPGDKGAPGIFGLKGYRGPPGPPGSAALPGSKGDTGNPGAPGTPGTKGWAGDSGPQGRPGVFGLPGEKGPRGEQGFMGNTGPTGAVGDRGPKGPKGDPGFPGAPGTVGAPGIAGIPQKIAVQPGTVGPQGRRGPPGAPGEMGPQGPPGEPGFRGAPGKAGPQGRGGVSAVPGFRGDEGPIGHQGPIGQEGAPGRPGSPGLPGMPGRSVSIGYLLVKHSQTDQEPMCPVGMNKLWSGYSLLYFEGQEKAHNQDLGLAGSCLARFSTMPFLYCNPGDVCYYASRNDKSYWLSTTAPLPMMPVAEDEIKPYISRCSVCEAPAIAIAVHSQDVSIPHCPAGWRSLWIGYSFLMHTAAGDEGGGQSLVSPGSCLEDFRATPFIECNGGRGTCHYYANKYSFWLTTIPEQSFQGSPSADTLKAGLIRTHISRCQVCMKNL
Method: as §1, §2

S. aureus ATCC 29213 = assay: Antibacterial activity, 96-well turbidimetric assay, S. aureus; type: cell-based, Staphylococcus aureus
Method: (§3) Strains were exposed to the peptides at concentrations varying twofold from 0.12 to 125 μg/ml. (B) Strains were exposed to fixed peptide concentrations (100 ug/ml for E. coli; 50 ug/ml for S. aureus) in the absence or presence of the indicated concentrations of sodium chloride. Each curve is the mean of three separate experiments. Points scored as zero survival could not be plotted.
(§4) The antibacterial activity of HD-5 and HD-5Abu against E. coli ATCC 25922 and S. aureus ATCC 29213 was carried out in a 96-well turbidimetric assay as described previously.

E. coli ATCC 25922 = assay: Antibacterial activity, 96-well turbidimetric assay, E. coli; type: cell-based, Escherichia coli
Method: as §3, §4

[6] = fibronectin to immobilized SlpA
[7] = peptide 0.12 to 125 μg/ml, 2 hour incubation

TNFα [reference compound]
IL-8 secretion increase relative to the control ([1]; TNFα 100 ng/ml alone): ~10 fold

B1: SlpA: Surface layer (S-layer) protein purified from Lactobacillus brevis ATCC 8287 by 5M LiCl extraction and gel filtration (protein)
chain: KSYATAGAYSTLKTDAATRNVEATGTNALYTKPGTVKGAKVVASKATMAKLASSKKSADYFRAYGVKTTNRGSVYYRVVTMDGKYRGYVYGGKSDTAFAGGIKSAETTTKADMPARTTGFYLTDTSKNTLWTAPKYTQYKASKVSLYGVAKDTKFTVDQAATKTREGSLYYHVTATNGSGISGWIYAGKGFSTTATGTQVLGGLSTDKSVTATNDNSVKIVYRTTDGTQVGSNTWVTSTDGTKAGSKVSDKAADQTALEAYINANKPSGYTVTNPNAADATYGNTVYATVSQAATSKVALKVSGTPVTTALTTADANDKVAANDTTANGSSVAGSTVYAAGTKLAQLTTDLTGEKGQVVTLTAIDTDLEDATFTGTTTYYSDLGKAYHYTYTYNKDSAASSNASTQFGSNVTGTLTATLVMGKSTATANGTTWFN
Kd ([2]; fibronectin + benzamidine (SlpA preincubated with 1 mM benzamidine), steady-state kinetics): 30.1 µM
ka × 10^3 [2, 6]: 7.04 × 10^3
kd × 10^−3 (s^−1) [2, 6]: 6.32 × 10^−3 s^−1
Kd ([2]; fibronectin to immobilized SlpA, 25° C., 1:1 Langmuir model): 0.0899 µM and 0.0898 µM
binding affinity for fibrinogen compared with affinity for fibronectin and laminin [3]: three orders of magnitude less
affinity of SlpA to bind laminin compared with fibronectin ([4]; from calculated Kd values): three-fold higher affinity
ka × 10^3 ([4]; laminin + benzamidine (1 mM)): 3.03 × 10^3
kd × 10^−3 (s^−1) ([4]; laminin + benzamidine (1 mM)): 2 × 10^−3 s^−1
ka × 10^3 ([4]; laminin to immobilized SlpA): 4.89 × 10^3
kd × 10^−3 (s^−1) ([4]; laminin to immobilized SlpA): 1.3 × 10^−3 s^−1
Kd ([5]; collagen to immobilized SlpA): 31.8 µM
ka × 10^3 ([5]; collagen to immobilized SlpA): 3.47 × 10^3
kd × 10^−3 (s^−1) ([5]; collagen to immobilized SlpA): 1.1 × 10^−3 s^−1
binding affinity for collagen compared with affinity for fibronectin and laminin ([5]; from binding constants): three orders of magnitude less

B2: HD-5α: human α-defensin 5, chemically synthesized and folded, three intra-molecular disulfide bonds (peptide, UniProt Q01523 20-94, looked up)
Defensin alpha 5: ESLQERADEATTQKQSGEDNQDLAISFAGNGLSALRTSGSQARATCYCRTGRCATRESLSGVCEISGRLYRLCCR
modifications: Defensin-5
notes: human α-defensin 5, chemically synthesized and folded, three intra-molecular disulfide bonds
antibacterial activity against S. aureus at highest salt concentration (S. aureus ATCC 29213; peptide 50 ug/ml, 100 mM sodium chloride): still significantly toxic
antimicrobial activity (killing) against S. aureus (S. aureus ATCC 29213; [7]): efficiently killed
antibacterial activity against E. coli at highest salt concentration (E. coli ATCC 25922; peptide 100 ug/ml, 100 mM sodium chloride): almost completely inhibited
antimicrobial activity (killing) against E. coli (E. coli ATCC 25922; [7]): efficiently killed
IL-8 levels increase compared to control cells ([1]; peptide 100 ug/ml, serum-free medium): ~10 fold
induction of IL-8 secretion ([1]; peptide 50 and 100 ug/ml): dose-dependent
